According to US20230279406A1:

What was measured:
Experiment in all cases: cell-based or functional assay
[1] = biological target: T1, CD376 PV1-RfxCas13d-566C-NLS-BGHpA
T1 sequence: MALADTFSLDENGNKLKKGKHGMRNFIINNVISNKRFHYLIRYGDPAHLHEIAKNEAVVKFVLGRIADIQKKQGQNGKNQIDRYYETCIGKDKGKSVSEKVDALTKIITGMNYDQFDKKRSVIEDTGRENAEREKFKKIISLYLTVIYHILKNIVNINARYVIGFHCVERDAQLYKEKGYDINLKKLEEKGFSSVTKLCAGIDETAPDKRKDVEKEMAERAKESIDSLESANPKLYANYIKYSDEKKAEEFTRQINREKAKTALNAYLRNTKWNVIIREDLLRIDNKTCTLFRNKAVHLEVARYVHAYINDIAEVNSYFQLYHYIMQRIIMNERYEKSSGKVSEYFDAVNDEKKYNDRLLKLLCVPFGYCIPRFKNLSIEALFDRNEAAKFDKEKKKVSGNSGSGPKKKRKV

[2] = biological target: CD176 PV1-tandem CaffVHH-L1-iCre-271C-NLS-BGHpA
Sequence of CD176 PV1-tandem CaffVHH-L1-iCre-271C-NLS-BGHpA (chain, as listed by the source): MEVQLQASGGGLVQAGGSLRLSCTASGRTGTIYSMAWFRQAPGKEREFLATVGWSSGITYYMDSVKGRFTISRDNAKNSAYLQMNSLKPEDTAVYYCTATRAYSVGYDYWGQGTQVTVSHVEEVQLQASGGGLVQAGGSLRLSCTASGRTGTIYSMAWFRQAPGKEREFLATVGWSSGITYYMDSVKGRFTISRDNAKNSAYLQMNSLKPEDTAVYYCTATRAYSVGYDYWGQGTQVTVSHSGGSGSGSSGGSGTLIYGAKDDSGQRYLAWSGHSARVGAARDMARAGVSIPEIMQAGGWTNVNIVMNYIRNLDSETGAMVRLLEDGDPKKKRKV

[3] = biological target: T2, CD380 PV1-RfxCas13d-656C-NLS-BGHpA
T2 sequence: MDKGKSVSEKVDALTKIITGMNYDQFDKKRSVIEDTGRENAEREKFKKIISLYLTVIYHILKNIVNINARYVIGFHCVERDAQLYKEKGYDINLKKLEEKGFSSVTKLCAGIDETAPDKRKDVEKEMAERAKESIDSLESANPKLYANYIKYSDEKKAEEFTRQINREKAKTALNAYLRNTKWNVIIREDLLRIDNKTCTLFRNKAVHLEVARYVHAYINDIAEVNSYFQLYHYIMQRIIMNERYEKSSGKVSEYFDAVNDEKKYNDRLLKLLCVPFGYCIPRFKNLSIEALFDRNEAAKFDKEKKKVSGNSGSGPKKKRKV

B1: CD375 PV1-RfxCas13d-N565-NLS-BGHpA (protein)
chain: MIEKKKSFAKGMGVKSTLVSGSKVYMTTFAEGSDARLEKIVEGDSIRSVNEGEAFSAEMADKNAGYKIGNAKFSHPKGYAVVANNPLYTGPVQQDMLGLKETLEKRYFGESADGNDNICIQVIHNILDIEKILAEYITNAAYAVNNISGLDKDIIGFGKFSTVYTYDEFKDPEHHRAAFNNNDKLINAIKAQYDEFDNFLDNPRLGYFGQAFFSKEGRNYIINYGNECYDILALLSGLRHWVVHNNEEESRISRTWLYNLDKNLDNEYISTLNYLYDRITNELTNSFSKNSAANVNYIAETLGINPAEFAEQYFRFSIMKEQKNLGFNITKLREVMLDRKDMSEIRKNHKVFDSIRTKVYTMMDFVIYRYYIEEDAKVAAANKSLPDNEKSLSEKDIFVINLRGSFNDDQKDALYYDEANRIWRKLENIMHNIKEFRGNKTREYKKKDAPRLPRILPAGRDVSAFSKLMYALTMFLDGKEINDLLTTLINKFDNIQSFLKVMPLIGVNAKFVEEYAFFKDSAKIADELRLIKSFARMGEPIADARRAMYIDAIRILGTNLSYDELKPKKKRKV
In the case of B1, the gRNA induced mCherry knockdown efficiency, no CID domain [1] is reported as less than 80%.

B2: CD175 PV1-iCre-N270-L1-tandem CaffVHH-NLS-BGHpA (protein)
chain: MSNLLTVHQNLPALPVDATSDEVRKNLMDMFRDRQAFSEHTWKMLLSVCRSWAAWCKLNNRKWFPAEPEDVRDYLLYLQARGLAVKTIQQHLGQLNMLHRRSGLPRPSDSNAVSLVMRRIRKENVDAGERAKQALAFERTDFDQVRSLMENSDRCQDIRNLAFLGIAYNTLLRIAEIARIRVKDISRTDGGRMLIHIGRTKTLVSTAGVEKALSLGVTKLVERWISVSGVADDPNNYLFCRVRKNGVAAPSATSQLSTRALEGIFEATHRSGGSGSGSSGGSGTMEVQLQASGGGLVQAGGSLRLSCTASGRTGTIYSMAWFRQAPGKEREFLATVGWSSGITYYMDSVKGRFTISRDNAKNSAYLQMNSLKPEDTAVYYCTATRAYSVGYDYWGQGTQVTVSHVEEVQLQASGGGLVQAGGSLRLSCTASGRTGTIYSMAWFRQAPGKEREFLATVGWSSGITYYMDSVKGRFTISRDNAKNSAYLQMNSLKPEDTAVYYCTATRAYSVGYDYWGQGTQVTVSHPKKKRKV
B2 gave a recombination upon caffeine induction, tandem against single CaffVHH split Cre 270/271 [2] of less than 13 fold.

B3: CD379 PV1-RfxCas13d-N655-NLS-BGHpA (protein)
chain: MIEKKKSFAKGMGVKSTLVSGSKVYMTTFAEGSDARLEKIVEGDSIRSVNEGEAFSAEMADKNAGYKIGNAKFSHPKGYAVVANNPLYTGPVQQDMLGLKETLEKRYFGESADGNDNICIQVIHNILDIEKILAEYITNAAYAVNNISGLDKDIIGFGKFSTVYTYDEFKDPEHHRAAFNNNDKLINAIKAQYDEFDNFLDNPRLGYFGQAFFSKEGRNYIINYGNECYDILALLSGLRHWVVHNNEEESRISRTWLYNLDKNLDNEYISTLNYLYDRITNELTNSFSKNSAANVNYIAETLGINPAEFAEQYFRFSIMKEQKNLGFNITKLREVMLDRKDMSEIRKNHKVFDSIRTKVYTMMDFVIYRYYIEEDAKVAAANKSLPDNEKSLSEKDIFVINLRGSFNDDQKDALYYDEANRIWRKLENIMHNIKEFRGNKTREYKKKDAPRLPRILPAGRDVSAFSKLMYALTMFLDGKEINDLLTTLINKFDNIQSFLKVMPLIGVNAKFVEEYAFFKDSAKIADELRLIKSFARMGEPIADARRAMYIDAIRILGTNLSYDELKALADTFSLDENGNKLKKGKHGMRNFIINNVISNKRFHYLIRYGDPAHLHEIAKNEAVVKFVLGRIADIQKKQGQNGKNQIDRYYETCIGKPKKKRKV
B3 showed a gRNA induced mCherry knockdown efficiency, no CID domain [3] of less than 80%.
